Consider one substance from PMC11266601.

The target of this test is RDTND-RIDC/A (DUF1-RIDC/A, residues 1959–2901, C2838 to alanine), from the 6×His construct (V. vulnificus MO6-24/O). Kind of test: ITC. (ITC needs no label: the signal is the heat of the interaction.)

What is called stoichiometry N is the number of molecules, sites or subunits per partner or assembly. For the substance “Human calmodulin2 (CaM), 6×His/GST tag cleaved (from UniProt P0DP24 1-149) (natural protein)”, the stoichiometry N worked out at 1.
